# Literature values, collected in article PMC4567469.
# Molecular target: Ran (Homo sapiens) (UniProt P62826)
substance,measurement,value
Leader protein (LE) (from UniProt P03304),Kd,3 nM
